{"source": "patent US12303551B2", "about": "“Cellular immunotherapy compositions and uses thereof” (CERO THERPEUTICS HOLDINGS, INC., priority 2018, dated 2025)", "molecules": {"B1": {"name": "CER126: Chimeric engulfment receptor: Tim4 binding, Tim4 transmembrane, TLR2 and TRAF2 signaling; SEQ ID NO: 169 (protein)", "chain": "MSKGLLLLWLVTELWWLYLTPAASEDTIIGFLGQPVTLPCHYLSWSQSRNSMCWGKGSCPNSKCNAELLRTDGTRIISRKSTKYTLLGKVQFGEVSLTISNTNRGDSGVYCCRIEVPGWFNDVKKNVRLELRRATTTKKPTTTTRPTTTPYVTTTTPELLPTTVMTTSVLPTTTPPQTLATTAFSTAVTTCPSTTPGSFSQETTKGSAFTTESETLPASNHSQRSMMTISTDIAVLRPTGSNPGILPSTSQLTTQKTTLTTSESLQKTTKSHQINSRQTILIIACCVGFVLMVLLFLAFLHRFHGLWYMKMMWAWLQAKRKPRKAPSRNICYDAFVSYSERDAYWVENLMVQELENFNPPFKLCLHKRDFIPGKWIIDNIIDSIEKSHKTVFVLSENFVKSEWCKYELDFSHFRLFDENNDAAILILLEPIEKKAIPQRFCKLRKIMNTKTYLEWPMDEAQREGFWVNLRAAIKSMAAASVTPPGSLELLQPGFSKTLLGTKLEAKYLCSACRNVLRRPFQAQCGHRYCSFCLASILSSGPQNCAACVHEGIYEEGISILESSSAFPDNAARREVESLPAVCPSDGCTWKGTLKEYESCHEGRCPLMLTECPACKGLVRLGEKERHLEHECPERSLSCRHCRAPCCGADVKAHHEVCPKFPLTCDGCGKKKIPREKFQDHVKTCGKCRVPCRFHAIGCLETVEGEKQQEHEVQWLREHLAMLLSSVLEAKPLLGDQSHAGSELLQRCESLEKKTATFENIVCVLNREVERVAMTAEAC", "modifications": "CER126, amino acids 1-22 are signal peptide"}, "B2": {"name": "hCER122: human CER122 construct: Tim4 binding domain, Tim4 transmembrane domain, TLR2 and Dap12 engulfment signaling domains; SEQ ID NO:179 (protein)", "chain": "ETVVTEVLGHRVTLPCLYSSWSHNSNSMCWGKDQCPYSGCKEALIRTDGMRVTSRKSAKYRLQGTIPRGDVSLTILNPSESDSGVYCCRIEVPGWFNDVKINVRLNLQRASTTTHRTATTTTRRTTTTSPTTTRQMTTTPAALPTTVVTTPDLTTGTPLQMTTIAVFTTANTCLSLTPSTLPEEATGLLTPEPSKEGPILTAESETVLPSDSWSSVESTSADTVLLTSKESKVWDLPSTSHVSMWKTSDSVSSPQPGASDTAVPEQNKTTKTGQMDGIPMSMKNEMPISQLLMIIAPSLGFVLFALFVAFLHRFHGLWYMKMMWAWLQAKRKPRKAPSRNICYDAFVSYSERDAYWVENLMVQELENFNPPFKLCLHKRDFIPGKWIIDNIIDSIEKSHKTVFVLSENFVKSEWCKYELDFSHFRLFDENNDAAILILLEPIEKKAIPQRFCKLRKIMNTKTYLEWPMDEAQREGFWVNLRAAIKSYFLGRLVPRGRGAAEAATRKQRITETESPYQELQGQRSDVYSDLNTQRPYYK", "modifications": "hCER122"}, "B3": {"name": "HPV E7 specific TCR: HPV16 E7 specific TCR (see WO2015/184228), TCRβ and TCRα chains joined by P2A; SEQ ID NO:84; expressed in CD8+ T cells (protein)", "chain": "MAPGLLCWALLCLLGAGLVDAGVTQSPTHLIKTRGQQVTLRCSPKSGHDTVSWYQQALGQGPQFIFQYYEEEERQRGNFPDRFSGHQFPNYSSELNVNALLLGDSALYLCASSLGWRGGRYNEQFFGPGTRLTVLEDLRNVTPPKVSLFEPSKAEIANKQKATLVCLARGFFPDHVELSWWVNGKEVHSGVCTDPQAYKESNYSYCLSSRLRVSATFWHNPRNHFRCQVQFHGLSEEDKWPEGSPKPVTQNISAEAWGRADCGITSASYQQGVLSATILYEILLGKATLYAVLVSTLVVMAMVKRKNSRAKRSGSGATNFSLLKQAGDVEENPGPMWGVFLLYVSMKMGGTTGQNIDQPTEMTATEGAIVQINCTYQTSGFNGLFWYQQHAGEAPTFLSYNVLDGLEEKGRFSSFLSRSKGYSYLLLKELQMKDSASYLCASVDGNNRLAFGKGNQVVVIPNIQNPEPAVYQLKDPRSQDSTLCLFTDFDSQINVPKTMESGTFITDKCVLDMKAMDSKSNGAIAWSNQTSFTCQDIFKETNATYPSSDVPCDATLTEKSFETDMNLNFQNLLVIVLRILLLKVAGFNLLMTLRLWSS", "modifications": "HPV16 E7 TCRbeta chain-P2A-TCRalpha chain", "notes": "HPV16 E7 specific TCR (see WO2015/184228), TCRβ and TCRα chains joined by P2A; expressed in CD8+ T cells"}}, "key": {"SCC152 cells": {"test_system": "SCC152 cells", "assay": "Magnitude breadth analysis of phagocytosis by CER type (pHrodo red / CELLTRACE violet microscopy)", "type": "cell-based", "conditions": "CD4+ T cells, pHrodo red stained SCC152", "description": "Top image is an enlargement of a cell in the lower left image showing a SCC152 cell engulfed by CER126-transduced CD4+ T cell. […] White arrow indicates CD8+ T cell transduced with E7-specific TCR and that is pHrodo Red negative (lower left panel of FIG. 60B). Software rendition of phagocytosis (lower right panel of FIG. 60B).\nVarious CER-modified CD4+ T cells were also evaluated for breadth of response to determine whether a particular CER confers a broad phagocytic response of low magnitude (e.g., 10% engulfment in 90% of cells) or a less frequent but strong phagocytic response (e.g., 90% engulfment in 10% of cells) in the host cells. CD8+ T cells were transduced with HPV16 E7 specific TCR as described in Example 1. CD4+ T cells were transduced with lentiviral vectors comprising a CER21, CER27, CER104, CER116, or CER117 nucleic acid. Mock-transduced (vector alone) CD4+ T cell were used as control. CD4+/CER+ and CD8+/E7 TCR+ T cells were stained with CELLTRACE violet. HPV16 E7+ head and neck squamous cell carcinoma cells (SCC152) were stained with pHrodo red. HPV16 E7 TCR transduced CD8+ T cells and selected CER transduced CD4+ T cells were mixed at a 1:1 ratio and co-cultured with SCC152 cells at a 1:1 ratio for 8 hours. Phagocytosis of target SCC152 cells by CER-transduced CD4+ T cells was analyzed by fluorescence microscopy. […] The horizontal axis represents the % area of CER-transduced CD4+ T cells having engulfment or % area of the CER-transduced CD4+ T cells taken up by target SCC152 cells. This measure was rarely above 40% across CER types tested. The vertical axis represents the proportion of CER-transduced CD4+ T cells that were phagocytic. For CER104, about 20% of CER104-transduced CD4+ T cells have more than 10% engulfment. For CER117-transduced CD4+ T cells, less than 10% have more than 10% engulfment."}, "[1]": {"test_system": "HCC827 adenocarcinoma cells", "assay": "HCC827 xenograft in NSG mice with osimertinib, bioluminescence imaging and immunofluorescence", "type": "in vivo", "description": "Growth of HCC827/luceriferase^+ cells in NSG mice upon adoptive transfer of purified hCER122 modified CD4+ T cells or hCER122 modified CD+ T cells with concomitant targeted inhibitor therapy was measured by bioluminescence imaging. Data represents mean values (n=5 mice/treatment group).\nTumor specimens were stained with anti-EGFR (tumor antigen), anti-CD4, anti-PD1, and DAPI counter-stain (left image).\nCD3+ or CD4+ T cells were purified from PBMCs, activated, and transduced with lentiviral vector comprising hCER122 nucleic acid. hCER122 is a human CER122 construct comprising a Tim4 binding domain, a Tim4 transmembrane domain, TLR2 engulfment signaling domain, and Dap12 engulfment signaling domain and comprises an amino acid sequence of SEQ ID NO:179. Transduced T cells were expanded. hCER122 modified CD3+ T cells (2.5×10^6 or 5×10^6) or hCER122 modified CD4+ T cells (2.5×10^6 or 5×10^6) were infused into NSG mice engrafted with HCC827 adenocarcinoma cells (2 million/mouse). HCC827 xenograft mice also received 1 mg/kg osimertinib post-engraftment. […] Microscopy images of immunofluorescence stained tumor cells from HCC827 xenograft model at day 16. Tumor specimens were stained with anti-EGFR (tumor antigen), anti-CD4, anti-PD1, and DAPI counter-stain."}, "[2]": {"test_system": "HPV+ SCC152/luceriferase+ cells", "assay": "SCC152/luciferase xenograft in NSG mice, bioluminescence imaging", "type": "in vivo", "conditions": "E7 TCR CD8+ T cells + mock transduced CD4+ T cells; compared to untreated controls", "description": "HPV+ SCC152 engrafted NSG mice were treated with HPV E7 TCR modified CD8+ T cells+CD4+ T cells (mock transduced), HPV E7 TCR modified CD8+ T cells+hCER104 modified CD4+ T cells, or untreated. FIG. 74B is a graph of mean values of bioluminescence signal intensities obtained for treatment group.\nHPV+ SCC152/luceriferase^+ cells were engrafted in NSG mice. Once tumors were established, mice were treated with HPV E7 specific TCR (SEQ ID NO:84) modified CD8+ T cells+mock transduced CD4+ T cells, HPV E7 specific TCR modified CD8+ T cells+hCER104 (SEQ ID NO:176) modified CD4+ T cells, or untreated (n=5 per treatment group). HPV E7 CD8+ T cells and hCER104 CD4+ T cells were administered at a 1:1 ratio. Tumor volume was measured over time by bioluminescence imaging (see, FIGS. 74A-74B)."}}}
{"molecule": "B1", "values": [{"measurement": "engulfment of SCC152 target cells seen in fluorescent micrographs", "setting": "SCC152 cells", "result": "engulfed"}]}
{"molecule": "B2", "values": [{"measurement": "anti-tumor response (bioluminescence)", "setting": "[1]; CER-modified CD3+ and CD4+ T cells plus 1 mg/kg osimertinib, compared to osimertinib alone", "result": "enhanced anti-tumor responses"}, {"measurement": "tumor elimination (bioluminescence)", "setting": "[1]; CER-modified CD4+ T cells plus 1 mg/kg osimertinib", "result": "eliminated tumors"}, {"measurement": "T cell infiltration of tumor, immunofluorescence staining", "setting": "[1]; day 16, anti-EGFR, anti-CD4, anti-PD1, DAPI", "result": "infiltration of PD1+CD4+ T cells (functionally active) into tumor stroma"}]}
{"molecule": "B3", "values": [{"measurement": "anti-tumor response (bioluminescence)", "setting": "[2]", "result": "anti-tumor response"}]}
